The values that follow come from US20260224761A1, “DUAL LABELLED COMPOUNDS TARGETING THE PROSTATE SPECIFIC MEMBRANE ANTIGEN” (priority 2023, published 2026).

For data set [1], the target named is T1, PSMA (Homo sapiens, UniProt Q04609).
T1 construct: using PSMA-expressing LNCaP cells and ([^125I]I-BA)EuK as standard radioligand; endogenous in cells; host or cells: LNCaP cells
The conditions noted are these: LNCaP cells; reference compounds, assayed under identical conditions (literature cited in table title); # = free mas3-chelator; cited from earlier work.

Data set [2] deals with T1, PSMA. Briefly: Competitive binding experiments (IC50) using PSMA-expressing LNCaP cells and ([125I]I-BA)EuK as standard radioligand. Here is the method: Competitive binding experiments (IC50) were carried out in accordance with an established protocol ([…]. et al., Eur. J. Nuc. Mol. Med. Imaging Res., 2014, 4, 63) using PSMA-expressing LNCaP cells and ([^125I]I-BA)EuK as standard radioligand.

Data set [3] in a line: Lipophilicity, modified shake-flask method. Type of data set: physicochemical. Here is the method:
The lipophilicity of [^99mTc]PSMA-HSG, [^99mTc]EuK(SO3)Cy5-mas3 and [^99mTc]EuK(SO3)Cy5(SO3)-mas3 was determined via a modified shake-flask method as described ([…]. et al., Eur. J. Nuc. Mol. Med. Imaging Res., 2014, 4, 63).

A short description of data set [4]: Biodistribution in LNCaP xenograft bearing NSG mice. Type of data set: in vivo. To be noted: NSG, mouse, in vivo, iv, total radioactivity; for tissue uptake at 2 h: 1 nmol/animal; for tissue uptake at 6 h: 0.1 nmol/animal. The procedure: (§1) The biodistribution of [^99mTc]PSMA-HSG, [^99mTc]EuK(SO3)Cy5-mas3 and [^99mTc]EuK(SO3)Cy5(SO3)-mas3 was investigated in LNCaP xenograft bearing NSG mice. […] (0.1 nmol-cohort), respectively.
(§2) To assess the influence of the different ligand designs of [^99mTc]PSMA-HSG and [^99mTc]mas3-(SO3)Cy5(SO3)—EuK on in vivo PSMA-targeting and general pharmacokinetics, their in vivo biodistribution was investigated in LNCaP xenograft bearing NSG mice in two different experimental settings: • A) at 2 h p.i. using a ligand dose of 1 nmol/animal. These conditions were chosen to allow comparability of the data from this study (Table 3) with previous results in a different tumor model (Hensbergen, A. W. et al., J. Nucl. Med., 2020, 61, 234-241). Here, [^99mTc]mas3-Cy5(SO3)—EuK was additionally included as an internal reference to establish the “missing link” between studies. • B) at 6 h p.i. using a ligand dose of 0.1 nmol/animal (Table 4). The latter settings were adapted to a timeline and dosing with more similarity to the clinical situation (surgery at a later time point, microdosing principle). Of note, however, a ligand amount of 0.1 nmol/mouse (extrapolation: 280 nmol/70 kg patient) still exceeds the potentially applicable clinical dose (48 nmol/70 kg patient for a compound with a molecular weight of −2100 g/mol). Nevertheless, it represents a dose level at which significant competition effects between unlabeled precursor and radioligand for PSMA binding sites in tumor tissue are not probable (Eder A. C. et al., J. Nucl. Med., 2021, 62, 1461-1467; Kalidindi T. M. et al., Eur. J. Nucl. Med. Mol. Imaging, 2021, 48, 2642-2651).

The nature of the next data set: Plasma protein binding. Type of data set: in vitro ADME. The conditions noted are these: plasma. The procedure: Quantum yield, molar extinction coefficient and serum protein binding experiments were performed according to previously published procedures (Hensbergen A. W. et al., Dyes and Pigments, 2018, 152, 19-28).
Data set [5] deals with PC346C orthotopic xenografts in Balb/c nude mice. The conditions noted are these: 1 nmol ligand, 2 h p.i.; cited from earlier work.
Data set [6] deals with LNCaP xenograft bearing NSG mice. Briefly: Biodistribution in LNCaP xenograft bearing NSG mice. Type of data set: in vivo. The procedure: as §1, §2

Structures are written as SMILES. Read-outs that look alike come from different tables or passages of the source. Where a SMILES comes first, the peptide text is derived from it. [ ]: non-standard residue; d: D form. The star is where a group is joined. X1 = O=C(O)CC[C@H](NC(=O)N[C@@H](CCCCNC(=O)CCCCCCC(=O)*)C(=O)O)C(=O)O; d2Nal = N[C@H](Cc1ccc2ccccc2c1)C(=O)O; Mercaptoacetyl = O=C(CS)*

T1 sequence (Q04609 whole entry): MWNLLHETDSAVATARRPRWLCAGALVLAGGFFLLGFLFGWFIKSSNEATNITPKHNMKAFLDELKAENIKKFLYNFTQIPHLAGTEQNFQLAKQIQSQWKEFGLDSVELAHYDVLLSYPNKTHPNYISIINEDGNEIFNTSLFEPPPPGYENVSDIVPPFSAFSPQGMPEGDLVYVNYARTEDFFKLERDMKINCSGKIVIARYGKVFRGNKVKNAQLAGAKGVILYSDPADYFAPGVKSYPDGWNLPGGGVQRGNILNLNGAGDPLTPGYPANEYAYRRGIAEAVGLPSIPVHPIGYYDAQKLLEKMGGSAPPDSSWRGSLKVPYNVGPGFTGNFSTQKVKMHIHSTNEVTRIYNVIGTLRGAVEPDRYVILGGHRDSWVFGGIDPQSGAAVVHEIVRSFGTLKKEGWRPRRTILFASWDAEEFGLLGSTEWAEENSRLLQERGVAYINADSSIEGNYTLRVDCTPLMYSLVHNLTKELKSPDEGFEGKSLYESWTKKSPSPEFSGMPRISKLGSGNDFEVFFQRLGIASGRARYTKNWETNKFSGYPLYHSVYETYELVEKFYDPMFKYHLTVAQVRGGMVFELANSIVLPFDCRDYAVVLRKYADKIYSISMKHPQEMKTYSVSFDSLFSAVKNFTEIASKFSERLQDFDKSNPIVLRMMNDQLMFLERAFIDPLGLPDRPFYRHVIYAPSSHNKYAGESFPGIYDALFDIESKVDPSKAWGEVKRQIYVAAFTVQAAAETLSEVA

For orientation: IC50 means the midpoint of a concentration-inhibition curve. For the compound `O=C(O)CC[C@H](NC(=O)N[C@@H](CCCCNC(=O)CCCCCCC(=O)NCCCC[C@@H](NC(=O)[C@@H](Cc1ccc2ccccc2c1)NC(=O)[C@@H](Cc1ccc(O)cc1)NC(=O)[C@H](CO)NC(=O)[C@H](CO)NC(=O)[C@H](CO)NC(=O)CS)C(=O)O)C(=O)O)C(=O)O` [PSMA-I&S] (Mercaptoacetyl-SSS[dY][d2Nal][dK](X1)-OH), the IC50 on PSMA [1] was 39.7 ± 1.2 nM.

On to `CC1(C)C(/C=C/C=C/C=C2/N(CCCCNC(=O)CCCCCNC(=O)[C@@H](CO)NC(=O)[C@@H](CO)NC(=O)[C@@H](CO)NC(=O)CS)c3ccc(S(=O)(=O)O)cc3C2(C)C)=[N+](CCCCCC(=O)NCCCC[C@H](NC(=O)N[C@@H](CCC(=O)O)C(=O)O)C(=O)O)c2ccc(S(=O)(=O)[O-])cc21` [[^99mTc]mas3-(SO3)Cy5(SO3)-EuK, metal not drawn], for which the “lower PSMA-affinity compared to [99mTc]PSMA-HSG” value on PSMA [2] is 4.5 fold. Further, the logP in data set [3] is -2.99. Besides, the tissue uptake at 2 h in data set [4] (Biodistribution: LNCaP tumor) worked out at 3.5 ± 1.1 %ID/g; in data set [4] (Biodistribution: blood), 0.7 ± 0.1 %ID/g; in data set [4] (Biodistribution: heart), 0.3 ± 0.1 %ID/g; in data set [4] (Biodistribution: intestines) it was 4.2 ± 0.4 %ID/g; in data set [4] (Biodistribution: kidneys) it was 59.2 ± 14.4 %ID/g; in data set [4] (Biodistribution: liver), 1 ± 0.4 %ID/g. In addition, the tissue uptake at 2 h in data set [4] (Biodistribution: lung) turned out to be 1.1 ± 0.2 %ID/g; in data set [4] (Biodistribution: muscle) it was 0.2 ± 0.03 %ID/g; in data set [4] (Biodistribution: pancreas) it was 0.3 ± 0.1 %ID/g; in data set [4] (Biodistribution: salivary glands), 3.1 ± 0.5 %ID/g; in data set [4] (Biodistribution: spleen) it was 4.3 ± 1.3 %ID/g; in data set [4] (Biodistribution: stomach), 0.6 ± 0.1 %ID/g. The compound also gave a fraction unbound in “Plasma protein binding” (Plasma Protein Binding (%)) of 0.256.

With `CC1(C)C(/C=C/C=C/C=C2/N(CCCCNC(=O)CCCCNC(=O)[C@@H](CO)NC(=O)[C@@H](CO)NC(=O)[C@@H](CO)NC(=O)CS)c3ccccc3C2(C)C)=[N+](CCCCCC(=O)NCCCC[C@H](NC(=O)N[C@@H](CCC(=O)O)C(=O)O)C(=O)O)c2ccc(S(=O)(=O)[O-])cc21` [[^99mTc]mas3-Cy5(SO3)-EuK, metal not drawn], in data set [5], the absolute intestinal uptake was 1.61±0.29 % iD/g. The tumor accumulation in data set [5] is recorded as 15.2±2.9 % iD/g. For the same compound, the logP in data set [3] (radiolabelled tracer, shake-flask, read-out: lipophilicity [log POW]) is -1.94. For the same compound, the “kidney accumulation compared to both ligands containing disulfo-Cy5” value in data set [6] (2 h p.i., 1 nmol/animal) is recorded as “threefold lower”. The “increase of tumor accumulation over time” value in data set [6] (6 h p.i./0.1 nmol versus 2 h p.i./1 nmol) is listed as “only slightly increased”. The tissue uptake at 6 h in data set [4] (6 h p.i., read-out: Biodistribution: LNCaP tumor) came out at 8.1 ± 1.4 %ID/g; in data set [4] (6 h p.i., read-out: Biodistribution: blood) it was 0.7 ± 0.1 %ID/g; in data set [4] (6 h p.i., read-out: Biodistribution: heart), 0.3 ± 0.1 %ID/g; in data set [4] (6 h p.i., read-out: Biodistribution: intestines) it was 9.7 ± 1.1 %ID/g; in data set [4] (6 h p.i., read-out: Biodistribution: kidneys), 70 ± 22 %ID/g; in data set [4] (6 h p.i., read-out: Biodistribution: liver) it was 1.7 ± 0.3 %ID/g. Further, the tissue uptake at 6 h in data set [4] (6 h p.i., read-out: Biodistribution: lung) was found to be 0.8 ± 0.2 %ID/g; in data set [4] (6 h p.i., read-out: Biodistribution: muscle) it was 0.2 ± 0.1 %ID/g; in data set [4] (6 h p.i., read-out: Biodistribution: pancreas), 0.3 ± 0.1 %ID/g; in data set [4] (6 h p.i., read-out: Biodistribution: salivary glands) it was 8.9 ± 2.1 %ID/g; in data set [4] (6 h p.i., read-out: Biodistribution: spleen), 1.9 ± 0.6 %ID/g; in data set [4] (6 h p.i., read-out: Biodistribution: stomach), 1.4 ± 0.3 %ID/g. Further, the tissue to tissue ratio at 6 h in data set [4] (0.1 nmol/mouse, 6 h p.i., 0.1 nmol, read-out: tumor/kidney ratio) came to 0.12 ± 0.04. Also, the tissue uptake at 2 h is 6.6 ± 2.8 %ID/g in data set [4] (2 h p.i., read-out: Biodistribution: LNCaP tumor); 0.9 ± 0.1 %ID/g in data set [4] (2 h p.i., read-out: Biodistribution: blood); 0.4 ± 0.1 %ID/g in data set [4] (2 h p.i., read-out: Biodistribution: heart); 6.3 ± 2.5 %ID/g in data set [4] (2 h p.i., read-out: Biodistribution: intestines); 21 ± 4.2 %ID/g in data set [4] (2 h p.i., read-out: Biodistribution: kidneys); 1.3 ± 0.5 %ID/g in data set [4] (2 h p.i., read-out: Biodistribution: liver). In addition, the tissue uptake at 2 h in data set [4] (2 h p.i., read-out: Biodistribution: lung) turned out to be 1.1 ± 0.1 %ID/g; in data set [4] (2 h p.i., read-out: Biodistribution: muscle), 0.2 ± 0.03 %ID/g; in data set [4] (2 h p.i., read-out: Biodistribution: pancreas) it was 0.3 ± 0.1 %ID/g; in data set [4] (2 h p.i., read-out: Biodistribution: salivary glands), 1.7 ± 0.3 %ID/g; in data set [4] (2 h p.i., read-out: Biodistribution: spleen) it was 1.9 ± 0.5 %ID/g; in data set [4] (2 h p.i., read-out: Biodistribution: stomach), 0.5 ± 0.1 %ID/g. Besides, in data set [4] (1 nmol/mouse, 2 h p.i., 1 nmol, read-out: tumor/kidney ratio), the tissue to tissue ratio at 2 h came to 0.31 ± 0.15. In addition, the fraction unbound in the data set “Plasma protein binding” (radiolabelled tracer, four tracers compared in this study, read-out: Plasma Protein Binding (%) (converted)) was 0.035.
